Experimental data taken from PMC3592866.
Several values for one entry are separate records, joined by “and”; a condition that tells them apart may be missing. Equal entries are not always repeated. Each block holds one substance with its values, some of them ahead of it.

Legend:
[1] = target: pXqua MltBP-QUA1-C59S fusion protein (Xenopus laevis); test: SEC; analytical Superdex-200 PC 3.2/30 of MltBP-QUA1 fusion proteins; 20 mM Tris-HCl pH 7.9, 150 mM NaCl, 0.05% sodium azide; 50 uL at 1 mg/mL loaded; apparent aggregation numbers from calibration; monomer to dimer
[2] = target: pXqua MltBP-QUA1-C59S/R67A fusion protein (Xenopus laevis); test: as above
[3] = target: pXqua MltBP-QUA1-C59S/R67A/E72G fusion protein (Xenopus laevis); test: as above
[4] = target: pXqua MltBP-QUA1-C59S/R67E/E72R fusion protein (Xenopus laevis); test: as above
[5] = target: pXqua QUA1-C59S (protease-liberated peptide) (Xenopus laevis); test: AUC; sedimentation equilibrium of released QUA1-C59S, global single species fits; monomer to dimer
[6] = target: wild type pXqua MltBP-QUA1 fusion protein (Xenopus laevis); test: SEC; analytical Superdex-200 PC 3.2/30 of MltBP-QUA1 fusion proteins; 20 mM Tris-HCl pH 7.9, 150 mM NaCl, 0.05% sodium azide; 50 uL at 1 mg/mL loaded; apparent aggregation numbers from calibration; monomer to dimer

Substance: pXqua MltBP-QUA1-C59S fusion protein (domain or fragment)
AAN (apparent aggregation number) [1]: 2.7 | stoichiometry N [1]: 2

Substance: pXqua MltBP-QUA1-C59S/R67A/E72G fusion protein (domain or fragment)
fraction eluting in the dimer peak [3]: 0.33

Substance: wild type pXqua MltBP-QUA1 fusion protein (domain or fragment)
stoichiometry N [6]: 4 and 2

Results, then the substance that gave them:

AAN (apparent aggregation number) [2]: 1.7 | percent of species in the dimeric state [2]: 40%
Substance: pXqua MltBP-QUA1-C59S/R67A fusion protein (domain or fragment)

AAN (apparent aggregation number) [4]: 2.1 | percent of species in the dimeric state [4]: 70%
Substance: pXqua MltBP-QUA1-C59S/R67E/E72R fusion protein (domain or fragment)

stoichiometry N [5]: 2
Substance: pXqua QUA1-C59S (protease-liberated peptide) (domain or fragment)
